The values that follow come from US20220339099A1 (published 2022).

For orientation: Kd means the free concentration of one partner at which half of the binding sites on the other are occupied at equilibrium, for simple one-to-one binding. As usually defined, the koff is a measure of how fast the partners let go of each other. High values mean a short-lived complex, low ones a long-lived complex. The term kon denotes a measure of how fast the partners come together. A low value points to slow association.

The assay has as its target T1, human IL-1 type 1 receptor (IL-1R1) (human, UniProt P14778 18-336, limits assumed).
T1 construct: SPR reagent; also called IL-1RI; interleukin-1 type I receptor
T1 sequence (looked up): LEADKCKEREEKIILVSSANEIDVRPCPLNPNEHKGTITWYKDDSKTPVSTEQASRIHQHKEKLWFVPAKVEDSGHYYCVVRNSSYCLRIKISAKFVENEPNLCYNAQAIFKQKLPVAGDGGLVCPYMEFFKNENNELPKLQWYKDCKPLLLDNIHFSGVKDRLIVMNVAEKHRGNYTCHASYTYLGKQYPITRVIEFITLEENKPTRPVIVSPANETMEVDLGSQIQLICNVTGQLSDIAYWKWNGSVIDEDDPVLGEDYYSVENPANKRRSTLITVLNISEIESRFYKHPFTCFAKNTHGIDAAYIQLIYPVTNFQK
The experiment in a line: surface plasmon resonance.

B1: rhIL-1α (recombinant human interleukin-1 alpha) (ligand, UniProt P01583 113-271, looked up)
chain: SAPFSFLSNVKYNFMRIIKYEFILNDALNQSIIRANDQYLTAAALHNLDEAVKFDMGAYKSSKDDAKITVILRISKTQLYVTAQDEDQPVLLKEMPEIPKTITGSETNLLFFWETHGTKNYFTSVAHPNLFIATKQDYWVCLAGGPPSITDFQILENQA
notes: also called rhlL-1α
Turning to B1, the affinity, expressed as Kd, was 547 nM; the koff worked out at 0.00145 s⁻¹; the on-rate (kon) came to 2650 M⁻¹ s⁻¹.
